Experimental data as given in US20230103631A1, “PEPTIDES AS SELECTIVE GIP RECEPTOR AGONISTS” (Sanofi, priority 2020, published 2023).
*1 amine or outer side, *2 acyl side, *3 side chain or, on linkers, in order; H or OH if unused. Where no end group is shown, it is not given here. Side-chain parts run from the residue outwards. [ ]: non-standard residue; d: D form. The star is where a group is joined. C20 diacid = O=C(O)CCCCCCCCCCCCCCCCCCC(=O)*; C18 diacid = O=C(O)CCCCCCCCCCCCCCCCC(=O)*; γGlu = O=C(O)[C@H](CCC(=O)[*:2])N[*:1]; NMeY = CN[C@@H](Cc1ccc(O)cc1)C(=O)O; AEEA = NCCOCCOCC(=O)O; Aib = CC(C)(N)C(=O)O

T1: human GIP receptor (human, UniProt P48546 22-466)
T1 sequence (looked up): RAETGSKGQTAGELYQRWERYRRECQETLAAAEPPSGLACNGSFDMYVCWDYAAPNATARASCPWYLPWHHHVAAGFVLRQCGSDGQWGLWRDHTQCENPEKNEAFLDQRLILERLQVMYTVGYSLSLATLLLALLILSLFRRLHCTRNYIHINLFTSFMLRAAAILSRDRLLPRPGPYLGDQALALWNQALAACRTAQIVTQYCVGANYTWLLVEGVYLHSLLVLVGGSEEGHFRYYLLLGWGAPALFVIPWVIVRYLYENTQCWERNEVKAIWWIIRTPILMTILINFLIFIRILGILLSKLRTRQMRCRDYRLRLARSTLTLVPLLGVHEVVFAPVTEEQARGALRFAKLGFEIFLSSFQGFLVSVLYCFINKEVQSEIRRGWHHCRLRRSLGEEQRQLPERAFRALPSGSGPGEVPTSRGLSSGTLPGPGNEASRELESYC

B1: SEQ ID NO: 8 (peptide)
peptide: [NMeY][Aib]EGTFISDLSI[Aib]K([AEEA-AEEA-γGlu-C18 diacid])DRIHQ[Aib]EFIEWLLAQGPSSGAPPPS-NH2
modifications: N-terminus assumed
SMILES: CC[C@H](C)[C@H](NC(=O)[C@H](CCCNC(=N)N)NC(=O)[C@H](CC(=O)O)NC(=O)[C@H](CCCCNC(=O)COCCOCCNC(=O)COCCOCCNC(=O)CC[C@H](NC(=O)CCCCCCCCCCCCCCCCC(=O)O)C(=O)O)NC(=O)C(C)(C)NC(=O)[C@@H](NC(=O)[C@H](CO)NC(=O)[C@H](CC(C)C)NC(=O)[C@H](CC(=O)O)NC(=O)[C@H](CO)NC(=O)[C@@H](NC(=O)[C@H](Cc1ccccc1)NC(=O)[C@@H](NC(=O)CNC(=O)[C@H](CCC(=O)O)NC(=O)C(C)(C)NC(=O)[C@H](Cc1ccc(O)cc1)NC)[C@@H](C)O)[C@@H](C)CC)[C@@H](C)CC)C(=O)N[C@@H](Cc1c[nH]cn1)C(=O)N[C@@H](CCC(N)=O)C(=O)NC(C)(C)C(=O)N[C@@H](CCC(=O)O)C(=O)N[C@@H](Cc1ccccc1)C(=O)N[C@H](C(=O)N[C@@H](CCC(=O)O)C(=O)N[C@@H](Cc1c[nH]c2ccccc12)C(=O)N[C@@H](CC(C)C)C(=O)N[C@@H](CC(C)C)C(=O)N[C@@H](C)C(=O)N[C@@H](CCC(N)=O)C(=O)NCC(=O)N1CCC[C@H]1C(=O)N[C@@H](CO)C(=O)N[C@@H](CO)C(=O)NCC(=O)N[C@@H](C)C(=O)N1CCC[C@H]1C(=O)N1CCC[C@H]1C(=O)N1CCC[C@H]1C(=O)N[C@@H](CO)C(N)=O)[C@@H](C)CC
notes: Exendin-4 derived synthetic lipidated peptide of formula I
B2: SEQ ID NO: 4 (peptide)
peptide: Y[Aib]EGTFISDLSI[Aib]K([AEEA-AEEA-γGlu-C18 diacid])DRIHQ[Aib]EFIEWLLAQGPSSGAPPPS-NH2
modifications: N-terminus assumed
SMILES: CC[C@H](C)[C@H](NC(=O)[C@H](CCCNC(=N)N)NC(=O)[C@H](CC(=O)O)NC(=O)[C@H](CCCCNC(=O)COCCOCCNC(=O)COCCOCCNC(=O)CC[C@H](NC(=O)CCCCCCCCCCCCCCCCC(=O)O)C(=O)O)NC(=O)C(C)(C)NC(=O)[C@@H](NC(=O)[C@H](CO)NC(=O)[C@H](CC(C)C)NC(=O)[C@H](CC(=O)O)NC(=O)[C@H](CO)NC(=O)[C@@H](NC(=O)[C@H](Cc1ccccc1)NC(=O)[C@@H](NC(=O)CNC(=O)[C@H](CCC(=O)O)NC(=O)C(C)(C)NC(=O)[C@@H](N)Cc1ccc(O)cc1)[C@@H](C)O)[C@@H](C)CC)[C@@H](C)CC)C(=O)N[C@@H](Cc1c[nH]cn1)C(=O)N[C@@H](CCC(N)=O)C(=O)NC(C)(C)C(=O)N[C@@H](CCC(=O)O)C(=O)N[C@@H](Cc1ccccc1)C(=O)N[C@H](C(=O)N[C@@H](CCC(=O)O)C(=O)N[C@@H](Cc1c[nH]c2ccccc12)C(=O)N[C@@H](CC(C)C)C(=O)N[C@@H](CC(C)C)C(=O)N[C@@H](C)C(=O)N[C@@H](CCC(N)=O)C(=O)NCC(=O)N1CCC[C@H]1C(=O)N[C@@H](CO)C(=O)N[C@@H](CO)C(=O)NCC(=O)N[C@@H](C)C(=O)N1CCC[C@H]1C(=O)N1CCC[C@H]1C(=O)N1CCC[C@H]1C(=O)N[C@@H](CO)C(N)=O)[C@@H](C)CC
notes: as for B1
B3: SEQ ID NO: 7 (peptide)
peptide: Y[Aib]EGTFISDLSI[Aib]K([AEEA-AEEA-γGlu-C20 diacid])DRIHQ[Aib]EFIEWLLAQGPSSGAPPPS-NH2
modifications: N-terminus assumed
SMILES: CC[C@H](C)[C@H](NC(=O)[C@H](CCCNC(=N)N)NC(=O)[C@H](CC(=O)O)NC(=O)[C@H](CCCCNC(=O)COCCOCCNC(=O)COCCOCCNC(=O)CC[C@H](NC(=O)CCCCCCCCCCCCCCCCCCC(=O)O)C(=O)O)NC(=O)C(C)(C)NC(=O)[C@@H](NC(=O)[C@H](CO)NC(=O)[C@H](CC(C)C)NC(=O)[C@H](CC(=O)O)NC(=O)[C@H](CO)NC(=O)[C@@H](NC(=O)[C@H](Cc1ccccc1)NC(=O)[C@@H](NC(=O)CNC(=O)[C@H](CCC(=O)O)NC(=O)C(C)(C)NC(=O)[C@@H](N)Cc1ccc(O)cc1)[C@@H](C)O)[C@@H](C)CC)[C@@H](C)CC)C(=O)N[C@@H](Cc1c[nH]cn1)C(=O)N[C@@H](CCC(N)=O)C(=O)NC(C)(C)C(=O)N[C@@H](CCC(=O)O)C(=O)N[C@@H](Cc1ccccc1)C(=O)N[C@H](C(=O)N[C@@H](CCC(=O)O)C(=O)N[C@@H](Cc1c[nH]c2ccccc12)C(=O)N[C@@H](CC(C)C)C(=O)N[C@@H](CC(C)C)C(=O)N[C@@H](C)C(=O)N[C@@H](CCC(N)=O)C(=O)NCC(=O)N1CCC[C@H]1C(=O)N[C@@H](CO)C(=O)N[C@@H](CO)C(=O)NCC(=O)N[C@@H](C)C(=O)N1CCC[C@H]1C(=O)N1CCC[C@H]1C(=O)N1CCC[C@H]1C(=O)N[C@@H](CO)C(N)=O)[C@@H](C)CC
notes: as for B1

Legend:
C57Bl/6 mice = assay: Intraperitoneal glucose tolerance test (ipGTT) after s.c. treatment; format: in vivo; conditions: 10 nmol/kg s.c. 6 h before i.p. glucose load, mean ± SEM
Experimental: Healthy, normoglycemic male C57Bl/6NCrl mice were ordered in an age of 9-10 weeks with an approximate body weight (BW) of 24-26 g at Charles River Laboratories Deutschland GmbH, 97633 Sulzfeld, Germany. Mice were shipped grouped housed (N=4 per cage), acclimatized for one week and remained grouped housed throughout the entire study. Mice were housed under vivarium conditions that included a 12 h light/dark cycle (light phase 06:00 AM-06:00 PM), mean room temperature of 22±2° C. and a relative mean humidity of 55±10%. All animals had free access to food (Ssniff R/M-H diet) and water prior to study start.
The primary objective of the study was to investigate the compound-induced lowering of the blood glucose excursion and improvement of glucose tolerance in a mouse ipGTT setting and therefore the primary parameters included blood glucose, delta blood glucose (normalized to the time point just prior to the i.p. glucose challenge, t=0 h) and their respective calculated area under curve (AUC) values. The study was performed as an acute, single dosing study with 6 groups and the male animals were randomly divided to groups of 7-8 mice per group. Dose-dependent pharmacodynamic blood glucose lowering efficacy of the GIPR agonist was analyzed with s.c. injections 6 h before the i.p. glucose load in the dose range from 3 up to 100 nmol/kg and compared to the vehicle group as well as the semaglutide positive control at a dose of 10 nmol/kg.
In more detail, mice were fed overnight and on the following morning brought to the lab with food removed but ad libitum access to water. Blood samplings (5 μl) were performed at: −6.5, −0.5, 0, 0.17, 0.5, 1, 1.5, 2 and 3 h before and after the glucose bolus of 1 g glucose per kg BW i.p. given at time point t=0 h. On time point t=0.17 h an additional K-EDTA plasma sample from 60-80 μl blood was taken for plasma insulin analysis. Blood was withdrawn from the tip of the tail. The GIPR agonist and semaglutide were dissolved in 10 mM phosphate buffer pH 7.4 with 2.3% glycerol and 0.01% polysorbat 20 (vehicle) and s.c. treatment was performed −6 h before the glucose load (t=0 h) using an injection volume of 5 ml/kg. The injection solutions were freshly prepared prior to the experiment using sterile filtered vehicle solution.
Blood glucose was determined enzymatically (Gluco-quant® Glucose/HK kit on Roche/Hitachi 912). Plasma insulin was determined using a mouse/rat insulin sandwich immunoassay kit from Meso Scale Discovery.
All data were collected using Microsoft Excel. None of the data were collected online. The results are expressed as means±standard error of the mean (SEM). As primary study parameters, blood glucose, baseline (time point t=0 h) subtracted delta blood glucose and their respective calculated area under curve (AUC) values were determined. The respective AUC data were calculated using the trapezoid rule for the time period t=0 h until t=2 h.
The statistical analysis of the ipGTT blood glucose excursion data response following subcutaneous compound or vehicle treatment was performed on the calculated AUC values of blood glucose raw data as well as the calculated AUC values for baseline subtracted delta blood glucose data. In a first step the Levene's test was used to test for equality of variances between groups. Where Levene's test was significant (p s 0.05), a rank transformation of the calculated AUC data was applied to stabilize the variances before ANOVA analysis was conducted. Where Levene's test was not significant (p>0.05) ANOVA was conducted without prior rank transformation. In a second step a One-way ANOVA analysis for factor treatment followed by Dunnett's multiple comparisons test vs. vehicle group was used to test for statistical differences. Different levels of significance were defined as *=p<0.05, **=p<0.001, ***=p<0.0001. All analyses were performed using SAS (version 9.4) under Linux via the interface software EverSt@t V6.1. […]

human GIP receptor [1] = target: T1, human GIP receptor; assay: cell-based or functional assay
human GLP-1 receptor [2] = target: T2, human GLP-1 receptor (human, UniProt P43220 24-463); assay: cell-based or functional assay
human GIP receptor [3] = target: T1, human GIP receptor; assay: cell-based or functional assay; remark: listed apart in the source
human GLP-1 receptor [4] = target: T2, human GLP-1 receptor; assay: displacement of [125I]GLP-1 from hGLP-1R HEK-293 membranes, SPA

Molecule | Incremental blood glucose concentration AUCi (C57Bl/6 mice; vehicle +4.93 ± 0.324) | Blood glucose concentration AUC (C57Bl/6 mice; vehicle +22.15 ± 0.662) | EC50 hGIPR 0% HSA, cAMP in HEK-293 cells (human GIP receptor [1]) | EC50 hGIPR 0.1% HSA, cAMP in HEK-293 cells (human GIP receptor [1]) | EC50 hGLP-1R 0% HSA, cAMP in HEK-293 cells (human GLP-1 receptor [2]) | hGIPR EC50, cAMP in human adipocytes (human GIP receptor [3]) | hGIPR Emax, cAMP in human adipocytes (human GIP receptor [3]) | IC50 (human GLP-1 receptor [4])
semaglutide [reference compound] | +1.15 ± 0.255 mmol/L* 0-2 h | +10.21 ± 0.503 mmol/L* 0-2 h |  |  |  |  |  | 
B1 |  |  | 0.19 pM | 1.37 pM | > 10000 pM | 500 pM | 116% | 186000 pM
B2 |  |  | 0.12 pM | 0.88 pM | > 10000 pM | 500 pM | 116% | 144000 pM
B3 |  |  | 0.17 pM | 2.86 pM | > 10000 pM | 300 pM | 121% | 105000 pM
